Data from patent US9012398B2.

Target: human GLP-1 receptor (human) (UniProt P43220)

Substance | GLP1cAMPma (3693) [EC50 (nM)] Mean Value [nM]
N-ε^20-{2-(2-(2-(2-[2-(2-(4-(hexadecanoylamino)-4- carboxybutyrylamino)ethoxy)ethoxy]acetylamino)ethoxy)ethoxy)acetyl)}- [Gln^12,Leu^14,Gln^28,Lys^20]Exendin-4-amide (from UniProt P26349) (peptide) | 0.021
N-ε^20-(2-(2-(2-(2-(2-(2-(17- carboxyheptadecanoylamino)ethoxy)ethoxy)acetylamino)ethoxy) ethoxy)acetyl[Aib^2,Lys^20,Ala^29,Ser(O-benzyl)^39]Exendin-4-(1-39)-amide (from UniProt P26349) (peptide) | 0.23
N-ε^20-[2-(2-[2-(2-[2-(2-[4-(17-Carboxyheptadecanoylamino)-4(S)- carboxybutyrylamino]ethoxy)ethoxy]acetylamino)ethoxy]ethoxy)acetyl] [Imidazoylpropionyl^1;Gin^28,Lys^20]exendin-4(1-39)amide (from UniProt P26349) (peptide) | 2.18
N-ε^27-{2-(2-(2-(2-[2-(2-(4-(hexadecanoylamino)-4(S)- carboxybutyrylamino)ethoxy)ethoxy]acetylamino)ethoxy)ethoxy) acetyl)}[Gln^12,Leu^14,28,Lys^27]Exendin-4(1-39)amide (from UniProt P26349) (peptide) | 0.041
N-ε^27-{2-(2-(2-(2-[2-(2-(4-(hexadecanoylamino)-4(S)- carboxybutyrylamino)ethoxy)ethoxy)acetylamino)ethoxy)ethoxy)acetyl} [Leu^14,28,Lys^27]Exendin-4(1-39)amide (from UniProt P26349) (peptide) | 0.19
N-ε^20-{2-(2-(2-(2-[2-(2-(4-(hexadecanoylamino)-4- carboxybutyrylamino)ethoxy)ethoxy]acetylamino)ethoxy)ethoxy) acetyl)}-[Leu^14,Gln^28,Lys^20]Exendin-4-amide (from UniProt P26349) (peptide) | 0.023
N-ε^20-[2-(2-[2-(2-[2-(2-[4-hexadecanoylamino-4(S)- carboxybutyrylamino]ethoxy)ethoxy]acetylamino)ethoxy]ethoxy)acetyl] [Arg^12,27,28,Leu^14,Lys^20]Exendin-4(1-39)amide (from UniProt P26349) (peptide) | 0.027
N-ε^32-[2-(2-[2-(2-[2-(2-[2-(2-[2- (Eicosanoylamino)ethoxy]ethoxy)acetylamino]ethoxy)ethoxy] acetylamino)ethoxy]ethoxy)acetyl][Arg^12,28,Leu^14,Val^27,Lys^32] Exendin-4-(1-39)amide (from UniProt P26349) (peptide) | 0.27
N-ε^27-(2-(2-(2-(2-(2-(2-(17- carboxyheptadecanoylamino)ethoxy)ethoxy)acetylamino)ethoxy) ethoxy)acetyl[Arg^12,Leu^14,Lys^27,Ala^29]Exendin-4-(1-39)-amide (from UniProt P26349) (peptide) | 5.6
N-ε^27-2-(2-2-(2-(2-(2-(4-(Hexadecanoylamino)-4(S)- carboxybutyrylamino)ethoxy)ethoxy)acetylamino)ethoxy) ethoxy)acetyl[Arg^12,Leu^14,Lys^27,Leu^28]Exendin-4-(1-39)-peptide amide (from UniProt P26349) | 0.093
N-ε^27-2-(2-2-(2-(2-(2-(2-(2-(2- (Octadecanoylamino)ethoxy)ethoxy)acetylamino)ethoxy)ethoxy)acetyl- amino)ethoxy)ethoxy)acetyl[Arg^12,Leu^14,Lys^27,Leu^28]Exendin-4- (1-39)-amide (from UniProt P26349) (peptide) | 0.049
N-ε^27-[2-(2-[2-(2-[2-(2-[4-hexadecanoylamino-4(S)- carboxybutyrylamino]ethoxy)ethoxy]acetylamino)ethoxy]ethoxy)acetyl] [Arg^12,Leu^14,Lys^27]Exendin-4(1-39)amide (from UniProt P26349) (peptide) | 0.007
N-ε^20-{2-(2-(2-(2-[2-(2-(4-(hexadecanoylamino)-4- carboxybutyrylamino)ethoxy)ethoxy]acetyl)ethoxy)ethoxy)acetyl)}- [Gln^12,27,Leu^14,Lys^20,Gln^28]Exendin-4-amide (from UniProt P26349) (peptide) | 0.027
N-ε^28-(2-(2-(2-(2-(2-(2-(2-(2-(2- (Octadecanoylamino)ethoxy)ethoxy)acetylamino)ethoxy)ethoxy)acetyl- amino)ethoxy)ethoxy)acetyl))[Arg^12,Val^27,Lys^28]Exendin-4(1-39)amide (from UniProt P26349) (peptide) | 0.041
N-epsilon20-{2-(2-(2-(2-[2-(2-(4-(hexadecanoylamino)-4-(S)- carboxybutyrylamino)ethoxy)ethoxy]acetyl)ethoxy)ethoxy)acetyl)}- [[Aib2,Lys20,Gln28]Exendin-4-amide (from UniProt P26349) (peptide) | 0.0095
N-ε^27-[2-(2-[2-(2-[2-(2-[4-hexadecanoylamino-4(S)- carboxybutyrylamino]ethoxy)ethoxy]acetylamino)ethoxy]ethoxy)acetyl] [Arg^12,Leu^14,Lys^27,Ala^29]Exendin-4-(1-39)-amide (from UniProt P26349) (peptide) | 0.15
N-ε^34-(2-(2-(2-(16-tetrazoylhexadecanoylamino-4(S)- carboxybutyrylamino)ethoxy)ethoxy(acetyl)[Leu^14,Arg^12,27, Lys^34]Exendin-4(1-39)amide (from UniProt P26349) (peptide) | 0.61
N-ε^20-[2-(2-[2-(2-[2-(2-[4-(17-Carboxyheptadecanoylamino)-4(S)- carboxybutyrylamino]ethoxy)ethoxy]acetylamino)ethoxy]ethoxy)acetyl] [Aib^2;Gln^28,Lys^20]exendin-4(1-39)amide (from UniProt P26349) (peptide) | 0.1
N-ε^20-[2-(2-[2-(2-[2-(2-[4-(hexadecanoylamino)-4(S)- carboxybutyrylamino]ethoxy)ethoxy]acetylamino)ethoxy]ethoxy)acetyl] [Imidazoylpropionyl^1,Lys^20,Gln^28]Exendin-4-(1-39)-amide (from UniProt P26349) (peptide) | 0.042
N-ε^20-2-(2-(2-(2-(2-(2-(4-(Hexadecanoylamino)-4(S)- carboxybutyrylamino)ethoxy)ethoxy)acetylamino)ethoxy) ethoxy)acetyl[Arg^12,27,Leu^14,Lys^20,Gln^28]Exendin-4-(1-39)-peptide amide (from UniProt P26349) | 0.033
N-ε^28-(2-(2-(2-(2-(2-(2-(2-(2-(2- (Octadecanoylamino)ethoxy)ethoxy)acetylamino)ethoxy)ethoxy)acetyl- amino)ethoxy)ethoxy)acetyl))[Arg^12,Leu^14,Val^27,Lys^28 Exendin-4(1- 39)amide (from UniProt P26349) (peptide) | 0.025
